Molecular target: 14-3-3ε (UniProt P62258)
Test: anti-Flag IP, anti-14-3-3ε Western blot
Conditions: reference: wild type; sites S274,S299

PITPNC1 (from UniProt Q9UKF7) S274/299A
binding against the reference: weaker
